B1: OR4K15 (parent)
chain: GUUAACGGUCAUAGGCCAUGGAAACUAGGAGCACCAUUUCGCUGCCAGUGAAGAAAUGAACAAAGAAAAUCUGGGCCAGGCAGGCAUCAAAAGAAAUAGUCUUGCGCUCAACCAGAAAGUCUGUAAUCAUUUUAAGGGUA

In this series the parent is B1. The series is described as follows: self-cleavage, relative activity (ratio to wild type); higher = more cleavage; in vitro, sequencing; the parent is a self-cleaving ribozyme.
Take A94G A126C: the self-cleavage came out at 0.82.

With A94G A126U, the self-cleavage was 1.08.

Turning to A94U A118C, the self-cleavage is 1.53.

Turning to A94U A118G, the self-cleavage was 1.51.

Regarding A89G A125G, the self-cleavage came to 0.16.

Turning to A95G A96U, the self-cleavage turned out to be 0.7.

On to A92U U130C, for which the self-cleavage was 1.59.

As for A94U U120A, the self-cleavage amounted to 2.18.

Regarding A95G G138C, the self-cleavage was 2.62.

A90G A116G: the self-cleavage is 0.8.

On to A90G A114U, for which the self-cleavage came to 0.02.

On to A90U A118G, for which the self-cleavage was 1.24.

A89U G104C: the self-cleavage amounted to 0.01.

On to A95G U133C, for which the self-cleavage amounted to 1.23.

For A90U U131C, the self-cleavage was found to be 2.68.

Consider A92G A94G, for which the self-cleavage is 1.49.

A89G G123A: the self-cleavage came out at 1.52.

Turning to A89G A140C, the self-cleavage is 0.99.

For the variant A89G A140U, the self-cleavage is 1.23.

Consider A89G A140G, for which the self-cleavage came to 1.55.

On to A92G C109U, for which the self-cleavage came out at 0.59.

Turning to A94G C105U, the self-cleavage amounted to 0.38.

In the case of A94G U132C, the self-cleavage worked out at 1.52.

Consider A94G U102A, for which the self-cleavage is 0.96.

With A91G U130C, the self-cleavage was found to be 0.54.

For the variant A92C U132C, the self-cleavage turned out to be 1.05.

As to A91G A116U, the self-cleavage amounted to 0.12.

Consider A90U U124G, for which the self-cleavage stood at 1.66.

For the variant A95C A96G, the self-cleavage came out at 1.13.

As to A94G A96U, the self-cleavage amounted to 0.68.

A94G A96G: the self-cleavage is 1.35.

For A90G A98U, the self-cleavage turned out to be 1.62.

Regarding A90G A98G, the self-cleavage turned out to be 0.22.

Take A92U U122C: the self-cleavage was 1.3.

For A91G A140G, the self-cleavage was 1.21.

In the case of A92G C113A, the self-cleavage was determined as 0.01.

For A89U U131C, the self-cleavage was 1.47.

Consider A92G G137A, for which the self-cleavage was 1.34.

A95G A111U: the self-cleavage was 0.15.

On to A95G A111G, for which the self-cleavage is 0.03.

Take A95G A111C: the self-cleavage was determined as 0.02.

On to A90G C105U, for which the self-cleavage amounted to 0.04.

Turning to A92U U102C, the self-cleavage is 2.01.

A92G U100C: the self-cleavage is 1.84.

In the case of A94G U97C, the self-cleavage stood at 1.12.

For the variant A90U U130C, the self-cleavage was 1.3.

Consider A91U, for which the self-cleavage stood at 1.74.

For A91C, the self-cleavage came out at 1.53.

A91G: the self-cleavage is 0.97.

Turning to A89G A117G, the self-cleavage stood at 1.73.

Turning to A94U G106U, the self-cleavage stood at 0.01.

A92G U108A: the self-cleavage turned out to be 0.03.

With A92G U108C, the self-cleavage came to 0.01.

Turning to A90U A111G, the self-cleavage stood at 0.02.

A95G A114U: the self-cleavage amounted to 0.42.

As for A94U G119A, the self-cleavage came out at 2.29.

In the case of A95G A126G, the self-cleavage was found to be 1.12.

With A89U A126U, the self-cleavage was 0.65.

For the variant A89G U130C, the self-cleavage came to 1.79.

Consider A92G G123A, for which the self-cleavage is 2.51.

A90G U127A: the self-cleavage worked out at 2.66.

Turning to A94U A135G, the self-cleavage is 2.33.

For the variant A92C C101A, the self-cleavage stood at 0.13.

With A94G A117G, the self-cleavage was 1.92.

Consider A95G G136A, for which the self-cleavage is 2.

A90U U127C: the self-cleavage came to 1.37.

As to A91U A118G, the self-cleavage was 0.94.

Take A91U A98G: the self-cleavage is 0.61.

In the case of A89G A111G, the self-cleavage was determined as 0.02.

In the case of A91G U108A, the self-cleavage amounted to 0.01.

For A95G U127G, the self-cleavage was found to be 2.23.

For the variant A91U U132C, the self-cleavage was found to be 1.62.

For A94G A114G, the self-cleavage was found to be 0.36.

On to A92U A94U, for which the self-cleavage came out at 2.03.

For A94U A126G, the self-cleavage is 1.84.

For the variant A90G G104A, the self-cleavage came to 0.02.

Take A94G A135U: the self-cleavage worked out at 1.8.

Regarding A89U A92G, the self-cleavage is 2.32.

A89G A118U: the self-cleavage is 0.54.

A89G A118G: the self-cleavage was determined as 1.18.

As for A91C U120C, the self-cleavage stood at 0.94.

On to A91G U124A, for which the self-cleavage amounted to 1.78.

In the case of A91G U124C, the self-cleavage is 0.62.

Consider A91C U131A, for which the self-cleavage stood at 2.16.

Turning to A91G U133C, the self-cleavage worked out at 1.1.

In the case of A91U A110U, the self-cleavage was determined as 0.82.

Consider A89U U108A, for which the self-cleavage amounted to 0.02.

For A90G U122A, the self-cleavage came to 0.84.

A91C A129G: the self-cleavage came to 1.15.

For A95G A110C, the self-cleavage is 0.39.

As to A95G A110G, the self-cleavage worked out at 0.15.

With A92G U122G, the self-cleavage is 2.31.

Turning to A92G U122A, the self-cleavage was 1.96.

On to A95G C101A, for which the self-cleavage amounted to 0.52.

For the variant A95G C101U, the self-cleavage worked out at 1.28.

Take A91U A114U: the self-cleavage is 0.14.

Turning to A91U A114G, the self-cleavage turned out to be 0.62.

Take A94U U122C: the self-cleavage was determined as 2.05.

Turning to A91G U139C, the self-cleavage came to 1.71.

As to A91G U139A, the self-cleavage came out at 1.64.

Consider A94G G106A, for which the self-cleavage worked out at 0.

Take A89U A96G: the self-cleavage turned out to be 1.73.

For A91U U127C, the self-cleavage was found to be 0.87.

A89G A114G: the self-cleavage is 0.36.

In the case of A89G A114U, the self-cleavage was 0.12.

As for A90U A134U, the self-cleavage was determined as 1.96.

With A90U A134G, the self-cleavage came out at 1.26.

For A92U U139C, the self-cleavage worked out at 1.43.

Turning to A89U A91U, the self-cleavage worked out at 1.24.

Consider A90G A118U, for which the self-cleavage came out at 0.45.

Regarding A90G A118C, the self-cleavage stood at 0.82.

For the variant A90G A118G, the self-cleavage came out at 0.47.

As for A94U U103C, the self-cleavage came to 0.46.

As for A91G A117C, the self-cleavage was determined as 0.67.

Regarding A91G A117G, the self-cleavage was found to be 1.48.

Consider A91G C109U, for which the self-cleavage came out at 0.4.

Consider A95U A111G, for which the self-cleavage worked out at 0.05.

On to A94G U124C, for which the self-cleavage was found to be 0.21.

For the variant A89G U124A, the self-cleavage was determined as 1.38.

Take A90U U103C: the self-cleavage is 1.27.

For A92U U100C, the self-cleavage worked out at 2.23.

Take A91G A110G: the self-cleavage came out at 0.11.

Consider A89G A134G, for which the self-cleavage worked out at 1.64.

As to A89U A98G, the self-cleavage was 0.66.

Regarding A94G U120C, the self-cleavage amounted to 1.02.

On to A90U A129G, for which the self-cleavage was determined as 1.51.

Take A89G U100C: the self-cleavage turned out to be 2.

As to A94U U100C, the self-cleavage is 2.56.

As to A92U A126U, the self-cleavage was found to be 1.02.

On to A91U U122C, for which the self-cleavage was 1.4.

With A92G A95U, the self-cleavage came to 1.8.

For the variant A94G U100C, the self-cleavage is 2.37.

Regarding A89G G115U, the self-cleavage is 0.11.

On to A91C A114U, for which the self-cleavage came to 0.05.

On to A91G U132A, for which the self-cleavage came to 0.69.

For the variant A91G U132C, the self-cleavage is 0.88.

For the variant A94G A118G, the self-cleavage was determined as 0.8.

Take A89G U103G: the self-cleavage was 0.02.

As for A90G U124A, the self-cleavage turned out to be 0.47.

As for A95G A129U, the self-cleavage came to 1.52.

For A89U A118U, the self-cleavage was 0.73.

Turning to A89G C107U, the self-cleavage is 0.

Turning to A92G U139C, the self-cleavage was 1.75.

On to A95U A98G, for which the self-cleavage was 1.46.

For A95G G106A, the self-cleavage is 0.

Regarding A92U A110U, the self-cleavage was found to be 1.74.

In the case of A92G U120C, the self-cleavage stood at 0.64.

On to A90G G119A, for which the self-cleavage is 0.36.

A90C U100A: the self-cleavage was 0.92.

As for A91G A126G, the self-cleavage was 0.55.

Turning to A92G A118G, the self-cleavage was 1.26.

Consider A91U A95G, for which the self-cleavage was determined as 2.58.

As to A95G A134G, the self-cleavage amounted to 1.89.

Consider A90U U132A, for which the self-cleavage was determined as 0.72.

For the variant A95G A98U, the self-cleavage was determined as 1.77.

In the case of A92G A114G, the self-cleavage worked out at 0.29.

Regarding A92G A114U, the self-cleavage came to 0.02.

As to A90G U108C, the self-cleavage is 0.02.

For the variant A90G U108A, the self-cleavage was found to be 0.02.

Regarding A95G G104A, the self-cleavage amounted to 0.08.

A92G A125C: the self-cleavage stood at 1.44.

As to A91G A135G, the self-cleavage was 1.06.

In the case of A95G A117U, the self-cleavage is 1.7.

For the variant A95G A117G, the self-cleavage is 2.65.

Consider A89G U122A, for which the self-cleavage was 1.

Turning to A89G G106A, the self-cleavage is 0.01.

For A92G U127C, the self-cleavage came out at 0.9.

(Values after the RNAGym collection of RNA variant scans (doi:10.7554/elife.90254).)
